Test results published in the supplement of paper PMC9170038.

The sequences below were run on MS2 coat protein (assay: apparent KD of MS2 coat protein, switch OFF state (with FMN for OFF switches, without FMN for ON switches); designed switch direction (-1 OFF switch, 1 ON switch): 1; higher = weaker reporter binding). Details: FMN input: 0 or 200 uM; Eterna round: R93 (includes R88 designs).
How it was run: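 Each design's apparent KD comes from the median of binding-curve fits to its normalised clusters. Those clusters carried RNA switches transcribed on-chip from Illumina sequencing clusters. SNAP-549-labelled MS2 coat protein was titrated onto them in twofold steps (0.7 or 1.5 nM to 3 µM; per step 0.8–1.5 h down to 10–20 min). Conditions were 100 mM Tris-HCl pH 7.5, 80 mM KCl, 4 mM MgCl2, without or with constant ligand.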
With “AAAAAAAAAAGUGAGGAUAUGUGAUCGGUGACAUGAGGAUCACCCAUGUGAGGCCUUCGGGCCAAGCAGAAGGUAUAAAAAAAAA [Same State 2-VII]” the “apparent KD of MS2 coat protein” value was 0.0294 µM. For “AAAGUACAUGAGGAUCACCCAUGUUGGAACAAAGCAGGAUAUGUACAAAAGGAAAUAAAUACAGAAGGGCUAAGAA [Same State #2]”, the “apparent KD of MS2 coat protein” value was 0.0329 µM. For “AGAAAUAAAAUGGAGGAUAUCCAAAAGAAAACAUGAGGAUCACCCAUGUAAAAGAAAAUAAAAUGGGAGAAGGCCAAAAAUAAAG”, the “apparent KD of MS2 coat protein” value was 0.0472 µM. In the case of “GAAAUAAAAACACAGGAUAUCCAAAAGAAAACAUGAGGAUCACCCAUGUAAAGAAAAUAAAAAUGGGAGAAGGGUGAAAAUAAAG [Mat - Same State 2 - JL mod - D25]”, the “apparent KD of MS2 coat protein” value is reported as 0.0938 µM. For “AAAAAACAUGAGGAUCACCCAUGUAAUUAAAACGCAGGAUAUAGAAAAAAAAAAAUGUUACUAGAAGGGUGAAAAA ['Same State 1']”, the “apparent KD of MS2 coat protein” value was 0.0629 µM. With “AAAAAACAUGAGGAUCACCCAUGUGAAAAAAUCGCAGGAUAUCCCUUUUUUAAAUGGGAGGGAGAAGGGUGAAAAA [Nob's Hobby 15 - Jieux - Same State 1]” the “apparent KD of MS2 coat protein” value was 0.0847 µM. In the case of “AAGAAACAUGAGGAUCACCCAUGUAGAAAUAUGGGAGGAUAUACGAAGACGAAAGUCGAAGUAGAAGGCCUAAGAA [Mat - Same State 1 - Meechl mod - D131]”, the “apparent KD of MS2 coat protein” value is reported as 0.0719 µM. “UUUAGGAAGAGAGAGGAUAUCCAAAGGAAAACAUGAGGAUCACCCAUGUAAAAGGUAGGAAAUUGGGAGAAGGCUCAAGAGAGAG [salish99-ss2-078]” was tested, and the “apparent KD of MS2 coat protein” value was 0.0165 µM. “AAGAAACAUGAGGAUCACCCAUGUGAUAAUAUGGGAGGAUAUACAAAGACGAAAGUCGAAGUAGAAGGCCUAUGAA [Garnet 43]” was tested, and the “apparent KD of MS2 coat protein” value was 0.062 µM. “AUAAAAUACUGUGAGGAUAUCCAUAAUAAAACAUGAGGAUCACCCAUGUGUAGAUAAUAAUAAUGGGAGAAGGCACAUAAUAAUA [Mat - Same state - Mayanna Mod - D101]” was tested, and the “apparent KD of MS2 coat protein” value was 0.041 µM. “GAAAAACAUGAGGAUCACCCAUGUAGAAAUAUGGGAGGAUAUACAAAGUGGAAAGACAAAGUAGAAGGCCUAAAAG [Garnet 25]” was tested, and the “apparent KD of MS2 coat protein” value was 0.309 µM. “CAUCAUGCGCCUAAGGAUAUGUCUCACAAGACAUGAGGAUCACCCAUGUAGAAUAAAUAAAUGAUGCAGAAGGUGGAGUGCAUGC [Rierre]” was tested, and the “apparent KD of MS2 coat protein” value was 0.334 µM. “ACAAAACAUGAGGAUCACCCAUGUCAAGCUAAUCAAGGAUAUGGGAGCGGUCCGGUGCGAUCAGAAGGUGAUUAGA [Gecelear]” was tested, and the “apparent KD of MS2 coat protein” value was 0.0532 µM. In the case of “AAAAGACAUGAGGAUCACCCAUGUCAAGACGUAGGAGGAUAUGUCGUGAAAAAAGACUUGGCAGAAGGCCUGUGUC [SS1 - 41]”, the “apparent KD of MS2 coat protein” value is reported as 0.0214 µM. For “GGGAGACAUGAGGAUCACCCAUGUGAGAAGAGGCGAGGAUAUCGAAAGAAAGAAGAGAAACGAGAAGGCGCGAGGG [salish99-SS1-059]”, the “apparent KD of MS2 coat protein” value was 0.075 µM. In the case of “CCCAAUGCAACGAAGGAUAUCCGUCAUGCCACAUGAGGAUCACCCAUGUACUGGCGGCACAAGACGGAGAAGGUCGGGUGCUGUG [Quenrean]”, the “apparent KD of MS2 coat protein” value is reported as 0.011 µM. For “CAACAGAGAGGACAGGAUAUGUCGUGAUAAACAUGAGGAUCACCCAUGUGAGACAUCACGUAGUCGCAGAAGGGUCCCGUCUUAC [Esleerandi]”, the “apparent KD of MS2 coat protein” value was 0.0188 µM. For “AACAAUCUAUCUGAGGAUAUAUGUCAAAAGACAUGAGGAUCACCCAUGUAAAAACAUGAAAAAUAAUAGAAGGCAGAUAGAUUGA [SS2: 1140]”, the “apparent KD of MS2 coat protein” value was 0.0524 µM. For “AAUCCAACUAGUCAGGAUAUCAGGCGUAAGACAUGAGGAUCACCCAUGUACUUAGUACAAGUAACUGAGAAGGGACAGGGUGACC [JR_SS002_Sub409]”, the “apparent KD of MS2 coat protein” value was 0.0755 µM. For “AUAAAACAUGAGGAUCACCCAUGUAGAAAUAUGGGAGGAUAUACAAAGACGAAAGUCGAAGUAGAAGGCCUAAAAG [Mat - Same State 1 - Meechl mod - D117]”, the “apparent KD of MS2 coat protein” value was 0.0683 µM. With “CGAAAGGAGAGAGAGGAUAUCCAAAGGAAAACAUGAGGAUCACCCAUGUAGAAGGUAGGAGAUUGGGAGAAGGCUCAAGAGAUAU [salish99-ss2-153]” the “apparent KD of MS2 coat protein” value was 0.0442 µM. For “CGAAAGGAGAGAGAGGAUAUCCAAAGGAAAACAUGAGGAUCACCCAUGUAGAAGGUAGGAGAUUGGGAGAAGGCUCAAGAGAGCU [salish99-ss2-152]”, the “apparent KD of MS2 coat protein” value was 0.0326 µM. “GAAAAACAUGAGGAUCACCCAUGUGAGAACAUGGGAGGAUAUACGAGGACGAAAGUCAAAGUAGAAGGCCUAAGAG [Garnet 86]” was tested, and the “apparent KD of MS2 coat protein” value was 0.03 µM. With “AAAAGACAUGAGGAUCACCCAUGUAAAAACAUAGGAGGAUAUGUCGUGAAAAAAGACUUGGCAGAAGGCCUUUGUC [SS1 - 45]” the “apparent KD of MS2 coat protein” value was 0.0764 µM. In the case of “ACAAAACAUGAGGAUCACCCAUGUCAGAAAUGGCAAGGAUAUAGAAAACAAAAACAAAAACUAGAAGGUGCAAAAC [Meechl SS1 R2 m3]”, the “apparent KD of MS2 coat protein” value is reported as 0.154 µM. For “AUUUUACAUGAGGAUCACCCAUGUUUUGGUGGAUCAGGAUAUAAAUUGAAUGAGUUUUAGUUAGAAGGGAUAUAUA [JR_SS001_Sub505]”, the “apparent KD of MS2 coat protein” value was 0.054 µM. With “GAUAGACAUGAGGAUCACCCAUGUAGAAUUAUGGGAGGAUAUACAAAGACGAGAGUCAGAGUAGAAGGCCUAGGAG [salish99-ss1-158]” the “apparent KD of MS2 coat protein” value was 0.0692 µM. In the case of “AAAAAAAAAGUAGAGGAUAUCCGAGUGGUAACAUGAGGAUCACCCAUGUGAAGAAAGGAAGAUGAGGAGAAGGCUACAAAAAAAAA [Mat - Mod of Nando]”, the “apparent KD of MS2 coat protein” value is reported as 0.0422 µM. “GGGAGACAUGAGGAUCACCCAUGUGAGAAGAGGCGAGGAUAUCGAAAGAAAGAAGAGAAACGAGAAGGCGCGAGUU [salish99-SS1-054]” was tested, and the “apparent KD of MS2 coat protein” value was 0.0547 µM. “AAAGACAUAGUUCAGGAUAUGGUAAUAGUCACAUGAGGAUCACCCAUGUUCAUUUAUAUGAGCGAUCAGAAGGGAGGUAAAAAAA [SameState2 Malc#15]” was tested, and the “apparent KD of MS2 coat protein” value was 0.244 µM. With “GGAAAGAAAAGCGAGGAUAUGCUAGGUAAUACAUGAGGAUCACCCAUGUUUUUUUUUAACAAAUUGCAGAAGGCGCAAGAAAGAAA [Ungainly]” the “apparent KD of MS2 coat protein” value was 0.0182 µM. “CAUCAUGCGCCUAAGGAUAUGUCUCACAAGACAUGAGGAUCACCCAUGUAUAAUAAAUAAAUGAUGCAGAAGGUGGAGUGCAUGC [Latibe]” was tested, and the “apparent KD of MS2 coat protein” value was 0.245 µM. “GAAGACAUAGUUCAGGAUAUGGGAAUAGUCACAUGAGGAUCACCCAUGUGCAUUUAUAUGCGCGCUCAGAAGGGAGGUAGAUAAU [Mat - Same state - Malcolm Mod - D118]” was tested, and the “apparent KD of MS2 coat protein” value was 0.027 µM.
